Results taken from PMC5515880 (Scientific Reports, 2017).

T1: GST-N protein (MHV N protein as a GST fusion construct) (mouse hepatitis virus (MHV-A59), UniProt P03416 1-454)
T1 sequence: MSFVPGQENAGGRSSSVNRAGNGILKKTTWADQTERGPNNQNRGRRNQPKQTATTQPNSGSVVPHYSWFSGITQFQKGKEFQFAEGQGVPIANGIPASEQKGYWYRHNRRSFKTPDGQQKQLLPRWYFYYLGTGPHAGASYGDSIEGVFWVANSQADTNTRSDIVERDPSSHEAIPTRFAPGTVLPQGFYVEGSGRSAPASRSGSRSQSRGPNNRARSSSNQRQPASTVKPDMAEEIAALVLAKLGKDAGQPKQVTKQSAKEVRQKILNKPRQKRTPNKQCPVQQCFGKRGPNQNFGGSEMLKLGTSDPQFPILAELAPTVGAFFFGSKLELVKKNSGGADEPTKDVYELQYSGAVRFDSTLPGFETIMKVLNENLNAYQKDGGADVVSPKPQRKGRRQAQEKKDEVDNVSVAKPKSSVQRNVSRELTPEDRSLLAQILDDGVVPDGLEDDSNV

T2: 6xHis-tagged N2b-N3 truncation of MHV N protein (mouse hepatitis virus (MHV-A59), UniProt P03416 258-454)
T2 sequence: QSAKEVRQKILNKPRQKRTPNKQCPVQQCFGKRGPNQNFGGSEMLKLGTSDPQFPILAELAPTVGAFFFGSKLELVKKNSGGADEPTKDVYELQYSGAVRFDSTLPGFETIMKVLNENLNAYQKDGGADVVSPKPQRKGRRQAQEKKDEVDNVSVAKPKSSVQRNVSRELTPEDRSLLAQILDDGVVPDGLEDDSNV

B1: 6xHis-tagged full length MHV N protein (natural protein)
chain: T1 sequence
B2: GST-N1 (MHV N protein truncation) (domain or fragment)
chain: MSFVPGQENAGGRSSSVNRAGNGILKKTTWADQTERGPNNQNRGRRNQPKQTATTQPNSGSVVPHYSWFSGITQFQKGKEFQFAEGQGVPIANGIPASEQKGYWYRHNRRSFKTPDGQQKQLLPRWYFYYLGTGPHAGASYGDSIEGVFWVANSQADTNTRSDIVERDPSSHEAIPTRFAPGTVLPQGFYVEGS

Assays:
[1] = target: T1, GST-N protein (MHV N protein as a GST …); assay: pull-down; conditions: one partner purified
[2] = target: T2, 6xHis-tagged N2b-N3 truncation of MHV N …; assay: pull-down; conditions: one partner purified

| Binder | binding result [1] | binding result [2] |
| --- | --- | --- |
| B1 | binds |  |
| B2 |  | binds |
